B1: CBL-interacting serine/threonine-protein kinase 24 (Arabidopsis thaliana (Mouse-ear cress)), Q9LDI3 (parent)
chain: MTKKMRRVGKYEVGRTIGEGTFAKVKFARNTDTGDNVAIKIMAKSTILKNRMVDQIKREISIMKIVRHPNIVRLYEVLASPSKIYIVLEFVTGGELFDRIVHKGRLEESESRKYFQQLVDAVAHCHCKGVYHRDLKPENLLLDTNGNLKVSDFGLSALPQEGVELLRTTCGTPNYVAPEVLSGQGYDGSAADIWSCGVILFVILAGYLPFSETDLPGLYRKINAAEFSCPPWFSAEVKFLIHRILDPNPKTRIQIQGIKKDPWFRLNYVPIRAREEEEVNLDDIRAVFDGIEGSYVAENVERNDEGPLMMNAFEMITLSQGLNLSALFDRRQDFVKRQTRFVSRREPSEIIANIEAVANSMGFKSHTRNFKTRLEGLSSIKAGQLAVVIEIYEVAPSLFMVDVRKAAGETLEYHKFYKKLCSKLENIIWRATEGIPKSEILRTITF
partner: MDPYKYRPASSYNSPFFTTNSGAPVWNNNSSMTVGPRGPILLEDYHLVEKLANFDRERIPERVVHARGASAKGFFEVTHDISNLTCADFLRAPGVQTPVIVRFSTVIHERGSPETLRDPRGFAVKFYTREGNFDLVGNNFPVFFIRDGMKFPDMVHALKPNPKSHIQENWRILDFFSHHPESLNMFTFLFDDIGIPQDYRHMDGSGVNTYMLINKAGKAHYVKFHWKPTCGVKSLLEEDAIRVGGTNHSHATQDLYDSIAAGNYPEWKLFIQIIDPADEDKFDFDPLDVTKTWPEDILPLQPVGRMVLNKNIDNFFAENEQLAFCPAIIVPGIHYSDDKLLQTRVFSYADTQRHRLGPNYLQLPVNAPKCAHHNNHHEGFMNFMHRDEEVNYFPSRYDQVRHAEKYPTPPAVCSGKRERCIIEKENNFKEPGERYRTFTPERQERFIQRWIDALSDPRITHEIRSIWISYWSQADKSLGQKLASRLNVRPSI

Variants of: B1
Conditions: with cata2_arath CAT2, P25819

Variant	effect of a mutation on the interaction
K40N	increasing interaction
